Consider 18 molecules from US20250218531A1 (ABSCI, published 2025).

The test has as its target human epidermal growth factor receptor 2 (HER2) extracellular domain (human, UniProt P04626 23-629). Briefly: SPR. (SPR reads the build-up and loss of mass on a sensor chip optically.)

Substitutions are numbered along the chain they refer to. Where “and” joins values, the source holds several entries; their conditions need not be identical. Equal values may be shown once.

B1: Trastuzumab HCDR3 variant APWWSGWYYFFDT (Fab, V domains shown)
VH: EVQLVESGGGLVQPGGSLRLSCAASGFNIKDTYIHWVRQAPGKGLEWVARIYPTNGYTRYADSVKGRFTISADTSKNTAYLQMNSLRAEDTAVYYCAPWWSGWYYFFDTWGQGTLVTVSS
VL: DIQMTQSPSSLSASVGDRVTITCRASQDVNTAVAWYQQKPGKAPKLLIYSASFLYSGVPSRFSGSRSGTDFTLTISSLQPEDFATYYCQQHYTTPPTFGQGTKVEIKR
For orientation: Kd means the constant that tells how readily two partners part at equilibrium. Take B1: the Kd stood at 33 nM and the “log(KD (M))” value is -7.48 log(M).

B2: Trastuzumab HCDR3 variant ARFGGAGGYYFDY (Fab, V domains shown)
VH: B1 VH with P98R, W99F, W100G, S101G, G102A, W103G, Y104G, F106Y, T109Y
VL: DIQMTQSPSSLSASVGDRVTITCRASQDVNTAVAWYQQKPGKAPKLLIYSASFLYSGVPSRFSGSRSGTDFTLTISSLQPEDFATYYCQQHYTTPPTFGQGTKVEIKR
Take B2: binding was characterised by a dissociation constant (Kd) of 35 nM and the “log(KD (M))” value is -7.46 log(M).

B3: Trastuzumab HCDR3 variant ARGGYGYYTWFDY (Fab, V domains shown)
VH: B1 VH with P98R, W99G, W100G, S101Y, W103Y, Y105T, F106W, T109Y
VL: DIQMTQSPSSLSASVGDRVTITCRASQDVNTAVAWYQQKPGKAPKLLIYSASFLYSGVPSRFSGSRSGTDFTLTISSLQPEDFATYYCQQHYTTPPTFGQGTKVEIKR
On to B3, for which the Kd amounted to 42.1 nM and the “log(KD (M))” value was -7.38 log(M).

B4: Trastuzumab HCDR3 variant AQYGRGGYWYFDY (Fab, V domains shown)
VH: B1 VH with P98Q, W99Y, W100G, S101R, W103G, Y105W, F106Y, T109Y
VL: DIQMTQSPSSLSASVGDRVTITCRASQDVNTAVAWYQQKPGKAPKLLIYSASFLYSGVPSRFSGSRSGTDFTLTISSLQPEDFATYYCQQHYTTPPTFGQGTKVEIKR
In the case of B4, the Kd stood at 188 nM and the “log(KD (M))” value is -6.72 log(M).

B5: Trastuzumab HCDR3 variant ARHYDYGRYYMDV (Fab, V domains shown)
VH: B1 VH with P98R, W99H, W100Y, S101D, G102Y, W103G, Y104R, F106Y, F107M, T109V
VL: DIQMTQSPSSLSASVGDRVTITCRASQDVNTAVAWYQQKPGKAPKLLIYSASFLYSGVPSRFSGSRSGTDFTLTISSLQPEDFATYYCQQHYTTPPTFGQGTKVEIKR
For the molecule B5, the dissociation constant Kd was 30.9 nM and the “log(KD (M))” value was -7.51 log(M).

B6: Trastuzumab HCDR3 variant ARFGPAYFYGFYY (Fab, V domains shown)
VH: B1 VH with P98R, W99F, W100G, S101P, G102A, W103Y, Y104F, F106G, D108Y, T109Y
VL: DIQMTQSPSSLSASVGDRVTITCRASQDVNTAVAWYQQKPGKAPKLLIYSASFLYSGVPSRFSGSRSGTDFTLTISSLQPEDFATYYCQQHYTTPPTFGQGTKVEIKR
With B6, the affinity, expressed as Kd, was 50.9 nM and the “log(KD (M))” value is -7.29 log(M).

B7: Trastuzumab HCDR3 variant ARDGYPQYGGYGY (Fab, V domains shown)
VH: EVQLVESGGGLVQPGGSLRLSCAASGFNIKDTYIHWVRQAPGKGLEWVARIYPTNGYTRYADSVKGRFTISADTSKNTAYLQMNSLRAEDTAVYYCARDGYPQYGGYGYWGQGTLVTVSS
VL: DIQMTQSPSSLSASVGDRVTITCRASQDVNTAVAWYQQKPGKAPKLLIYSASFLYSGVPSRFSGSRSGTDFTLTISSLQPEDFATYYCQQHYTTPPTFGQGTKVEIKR
On to B7, for which the equilibrium dissociation constant (Kd) turned out to be 127 nM and the “log(KD (M))” value is -6.9 log(M).

B8: Trastuzumab HCDR3 variant ARFSGYGAYDYAY (Fab, V domains shown)
VH: B7 VH with D99F, G100S, Y101G, P102Y, Q103G, Y104A, G105Y, G106D, G108A
VL: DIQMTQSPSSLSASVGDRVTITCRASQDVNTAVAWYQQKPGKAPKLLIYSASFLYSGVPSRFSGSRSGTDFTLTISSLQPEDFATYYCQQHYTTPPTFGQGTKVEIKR
With B8, the Kd stood at 125 nM and the “log(KD (M))” value is -6.9 log(M).

B9: Trastuzumab HCDR3 variant ARNYYYGAYYFDY (Fab, V domains shown)
VH: B1 VH with P98R, W99N, W100Y, S101Y, G102Y, W103G, Y104A, F106Y, T109Y
VL: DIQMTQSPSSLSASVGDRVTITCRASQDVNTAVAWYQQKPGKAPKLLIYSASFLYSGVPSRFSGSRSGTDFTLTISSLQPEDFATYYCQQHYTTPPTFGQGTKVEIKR
Regarding B9, binding was put at a Kd of 45.5 nM and the “log(KD (M))” value was -7.34 log(M).

B10: Trastuzumab HCDR3 variant ARGYYQDSQSWGY (Fab, V domains shown)
VH: B7 VH with D99G, G100Y, P102Q, Q103D, Y104S, G105Q, G106S, Y107W
VL: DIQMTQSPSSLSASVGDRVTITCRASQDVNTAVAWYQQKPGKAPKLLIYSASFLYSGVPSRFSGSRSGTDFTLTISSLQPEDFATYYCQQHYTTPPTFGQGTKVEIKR
For the molecule B10, the Kd stood at 166 nM and the “log(KD (M))” value is -6.78 log(M).

B11: Trastuzumab HCDR3 variant ARAGGTSISLGHG (Fab, V domains shown)
VH: B7 VH with D99A, Y101G, P102T, Q103S, Y104I, G105S, G106L, Y107G, G108H, Y109G
VL: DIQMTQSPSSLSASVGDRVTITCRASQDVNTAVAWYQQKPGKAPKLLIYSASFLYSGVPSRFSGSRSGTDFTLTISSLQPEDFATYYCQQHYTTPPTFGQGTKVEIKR
Consider B11, for which the affinity, expressed as Kd, was 67 nM and the “log(KD (M))” value was -7.17 log(M).

B12: Trastuzumab HCDR3 variant ARDSPYYGSLYLY (Fab, V domains shown)
VH: B7 VH with G100S, Y101P, P102Y, Q103Y, Y104G, G105S, G106L, G108L
VL: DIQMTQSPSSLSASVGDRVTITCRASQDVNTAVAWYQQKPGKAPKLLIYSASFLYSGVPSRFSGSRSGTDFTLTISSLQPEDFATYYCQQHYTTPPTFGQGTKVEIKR
Consider B12, for which the Kd amounted to 205 nM and the “log(KD (M))” value was -6.69 log(M).

B13: Trastuzumab HCDR3 variant AQNWDRGSYFYTY (Fab, V domains shown)
VH: B1 VH with P98Q, W99N, S101D, G102R, W103G, Y104S, F107Y, D108T, T109Y
VL: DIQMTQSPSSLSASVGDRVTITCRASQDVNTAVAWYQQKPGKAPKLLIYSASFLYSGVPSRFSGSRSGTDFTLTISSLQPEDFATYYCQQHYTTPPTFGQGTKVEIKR
Regarding B13, the Kd was 43.1 nM and 43 nM; the “log(KD (M))” value was -7.37 log(M).

B14: Trastuzumab HCDR3 variant ARDGYPFYSGMDY (Fab, V domains shown)
VH: B7 VH with Q103F, G105S, Y107M, G108D
VL: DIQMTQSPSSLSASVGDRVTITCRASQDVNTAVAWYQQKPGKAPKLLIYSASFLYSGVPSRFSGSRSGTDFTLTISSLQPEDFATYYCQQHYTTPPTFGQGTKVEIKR
Regarding B14, binding was characterised by a dissociation constant (Kd) of 154 nM and the “log(KD (M))” value is -6.81 log(M).

B15: Trastuzumab HCDR3 variant ARGHYSLGYSFDF (Fab, V domains shown)
VH: B1 VH with P98R, W99G, W100H, S101Y, G102S, W103L, Y104G, F106S, T109F
VL: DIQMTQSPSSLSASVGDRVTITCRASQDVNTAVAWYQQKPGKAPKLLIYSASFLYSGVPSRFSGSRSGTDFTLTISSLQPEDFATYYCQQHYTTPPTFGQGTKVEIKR
B15: the Kd came out at 256 nM and the “log(KD (M))” value was -6.59 log(M).

B16: Trastuzumab HCDR3 variant ARNSGTGIWAFAY (Fab, V domains shown)
VH: B7 VH with D99N, G100S, Y101G, P102T, Q103G, Y104I, G105W, G106A, Y107F, G108A
VL: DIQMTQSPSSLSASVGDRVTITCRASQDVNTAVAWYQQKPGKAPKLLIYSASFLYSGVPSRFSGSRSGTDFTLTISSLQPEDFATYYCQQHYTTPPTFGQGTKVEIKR
Regarding B16, the Kd is 65 nM and the “log(KD (M))” value was -7.19 log(M).

B17: Trastuzumab HCDR3 variant ARDGGMYRYGLYG (Fab, V domains shown)
VH: B7 VH with Y101G, P102M, Q103Y, Y104R, G105Y, Y107L, G108Y, Y109G
VL: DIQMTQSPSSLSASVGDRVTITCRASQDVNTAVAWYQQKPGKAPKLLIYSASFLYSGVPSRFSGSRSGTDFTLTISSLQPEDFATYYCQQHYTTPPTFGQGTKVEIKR
Consider B17, for which the Kd was determined as 231 nM and the “log(KD (M))” value was -6.64 log(M).

B18: Trastuzumab HCDR3 variant ARDVYVGSPVFDY (Fab, V domains shown)
VH: B7 VH with G100V, P102V, Q103G, Y104S, G105P, G106V, Y107F, G108D
VL: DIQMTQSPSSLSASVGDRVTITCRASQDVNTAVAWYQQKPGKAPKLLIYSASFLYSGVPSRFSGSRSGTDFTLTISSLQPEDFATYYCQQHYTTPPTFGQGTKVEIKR
Take B18: the affinity, expressed as Kd, was 278 nM and the “log(KD (M))” value is -6.56 log(M).
